Measurements from patent US20230158141A1 (YAFEI SHANGHAI BIOLOG MEDICINE SCIENCE AND TECHNOLOGY, published 2023).

molecular target: T1, CTLA-4 (UniProt P16410 36-162, limits assumed); experiment: ELISA; S47 on the Cys
T1 construct: also called CTLA-4 protein
T1 sequence (P16410 36-162 limits assumed): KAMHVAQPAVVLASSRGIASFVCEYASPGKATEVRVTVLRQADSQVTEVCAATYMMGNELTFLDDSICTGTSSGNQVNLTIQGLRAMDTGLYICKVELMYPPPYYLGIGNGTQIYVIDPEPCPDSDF

Binder | Activity after S47 (40 kD) blocking
Ipilimumab L32 Tyr to Cys (antibody, V domains shown, chain 2 pos 33 (Kabat L32): introduced Cys carrying the conjugated group of the row (R4-7, R4-8 or S47), written C) VH: QVQLVESGGGVVQPGRSLRLSCAASGFTFSSYTMHWVRQAPGKGLEWVTFISYDGNNKYYADSVKGRFTISRDNSKNTLYLQMNSLRAEDTAIYYCARTGWLGPFDYWGQGTLVTVSS VL: not shown | 13%
Ipilimumab L54 Arg to Cys (antibody, V domains shown, chain 2 pos 55 (Kabat L54): introduced Cys carries R4-26 (or S47, 40 kD PEG linker) on its thiol, written C) VH: QVQLVESGGGVVQPGRSLRLSCAASGFTFSSYTMHWVRQAPGKGLEWVTFISYDGNNKYYADSVKGRFTISRDNSKNTLYLQMNSLRAEDTAIYYCARTGWLGPFDYWGQGTLVTVSS VL: not shown | 17%

molecular target: CTLA-4 (UniProt P16410 36-162, limits assumed); experiment: ELISA, conjugate vs WT antibody
Target sequence in this assay (P16410 36-162 limits assumed): as the sequence (P16410 36-162 limits assumed) above

Binder | binding activity (% of WT)
anti-CTLA-4 antibody light chain A35C-R4-1 (antibody, human IgG1, kappa, V domains shown, R4-1 on Cys 35) VH: QVQLVESGGGVVQPGRSLRLSCAASGFTFSSYTMHWVRQAPGKGLEWVTFISYDGNNKYYADSVKGRFTISRDNSKNTLYLQMNSLRAEDTAIYYCARTGWLGPFDYWGQGTLVTVSS VL: not shown | 91.5%
anti-CTLA-4 antibody light chain S31C-R4-1 (antibody, human IgG1, kappa, V domains shown, R4-1 on Cys 31) VH: QVQLVESGGGVVQPGRSLRLSCAASGFTFSSYTMHWVRQAPGKGLEWVTFISYDGNNKYYADSVKGRFTISRDNSKNTLYLQMNSLRAEDTAIYYCARTGWLGPFDYWGQGTLVTVSS VL: not shown | 80.9%
anti-CTLA-4 antibody light chain S95C-R4-1 (antibody, human IgG1, kappa, V domains shown, R4-1 on Cys 95) VH: QVQLVESGGGVVQPGRSLRLSCAASGFTFSSYTMHWVRQAPGKGLEWVTFISYDGNNKYYADSVKGRFTISRDNSKNTLYLQMNSLRAEDTAIYYCARTGWLGPFDYWGQGTLVTVSS VL: not shown | 95.4%
anti-CTLA-4 antibody light chain T98C-R4-1 (antibody, human IgG1, kappa, V domains shown, R4-1 on Cys 98) VH: QVQLVESGGGVVQPGRSLRLSCAASGFTFSSYTMHWVRQAPGKGLEWVTFISYDGNNKYYADSVKGRFTISRDNSKNTLYLQMNSLRAEDTAIYYCARTGWLGPFDYWGQGTLVTVSS VL: not shown | 91%
anti-CTLA-4 antibody light chain S54C-R4-1 (antibody, human IgG1, kappa, V domains shown, R4-1 on Cys 54) VH: QVQLVESGGGVVQPGRSLRLSCAASGFTFSSYTMHWVRQAPGKGLEWVTFISYDGNNKYYADSVKGRFTISRDNSKNTLYLQMNSLRAEDTAIYYCARTGWLGPFDYWGQGTLVTVSS VL: not shown | 97.7%
anti-CTLA-4 antibody light chain G30C-R4-1 (antibody, human IgG1, kappa, V domains shown, R4-1 on Cys 30) VH: QVQLVESGGGVVQPGRSLRLSCAASGFTFSSYTMHWVRQAPGKGLEWVTFISYDGNNKYYADSVKGRFTISRDNSKNTLYLQMNSLRAEDTAIYYCARTGWLGPFDYWGQGTLVTVSS VL: not shown | 95.3%
anti-CTLA-4 antibody light chain G93C-R4-1 (antibody, human IgG1, kappa, V domains shown, R4-1 on Cys 93) VH: QVQLVESGGGVVQPGRSLRLSCAASGFTFSSYTMHWVRQAPGKGLEWVTFISYDGNNKYYADSVKGRFTISRDNSKNTLYLQMNSLRAEDTAIYYCARTGWLGPFDYWGQGTLVTVSS VL: not shown | 99.1%
anti-CTLA-4 antibody light chain G58C-R4-1 (antibody, human IgG1, kappa, V domains shown, R4-1 on Cys 58) VH: QVQLVESGGGVVQPGRSLRLSCAASGFTFSSYTMHWVRQAPGKGLEWVTFISYDGNNKYYADSVKGRFTISRDNSKNTLYLQMNSLRAEDTAIYYCARTGWLGPFDYWGQGTLVTVSS VL: not shown | 88.1%
anti-CTLA-4 antibody light chain S32C-R4-1 (antibody, human IgG1, kappa, V domains shown, R4-1 on Cys 32) VH: QVQLVESGGGVVQPGRSLRLSCAASGFTFSSYTMHWVRQAPGKGLEWVTFISYDGNNKYYADSVKGRFTISRDNSKNTLYLQMNSLRAEDTAIYYCARTGWLGPFDYWGQGTLVTVSS VL: not shown | 99%

molecular target: T2, PD-1 (UniProt Q15116 25-167, limits assumed); experiment: ELISA, OD mutant/OD WT; B=70-90%
T2 sequence (Q15116 25-167 limits assumed): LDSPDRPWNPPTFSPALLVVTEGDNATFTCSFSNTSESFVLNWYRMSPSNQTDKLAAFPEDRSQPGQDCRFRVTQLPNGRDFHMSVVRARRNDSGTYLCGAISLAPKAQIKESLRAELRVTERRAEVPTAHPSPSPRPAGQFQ

Binder | binding activity (OD after mutation/OD wild type)
anti-PD-1 antibody 2 light chain A25C (antibody, human IgG4 S228P, kappa, V domains shown) VH: QVQLVESGGGVVQPGRSLRLDCKASGITFSNSGMHWVRQAPGKGLEWVAVIWYDGSKRYYADSVKGRFTISRDNSKNTLFLQMNSLRAEDTAVYYCATNDDYWGQGTLVTVSS VL: EIVLTQSPATLSLSPGERATLSCRCSQSVSSYLAWYQQKPGQAPRLLIYDASNRATGIPARFSGSGSGTDFTLTISSLEPEDFAVYYCQQSSNWPRTFGQGTKVEIKR | 70 to 90%
anti-PD-1 antibody 2 light chain A55C (antibody, human IgG4 S228P, kappa, V domains shown) VH: QVQLVESGGGVVQPGRSLRLDCKASGITFSNSGMHWVRQAPGKGLEWVAVIWYDGSKRYYADSVKGRFTISRDNSKNTLFLQMNSLRAEDTAVYYCATNDDYWGQGTLVTVSS VL: EIVLTQSPATLSLSPGERATLSCRASQSVSSYLAWYQQKPGQAPRLLIYDASNRCTGIPARFSGSGSGTDFTLTISSLEPEDFAVYYCQQSSNWPRTFGQGTKVEIKR | 70 to 90%
anti-PD-1 antibody 2 light chain I58C (antibody, human IgG4 S228P, kappa, V domains shown) VH: QVQLVESGGGVVQPGRSLRLDCKASGITFSNSGMHWVRQAPGKGLEWVAVIWYDGSKRYYADSVKGRFTISRDNSKNTLFLQMNSLRAEDTAVYYCATNDDYWGQGTLVTVSS VL: EIVLTQSPATLSLSPGERATLSCRASQSVSSYLAWYQQKPGQAPRLLIYDASNRATGCPARFSGSGSGTDFTLTISSLEPEDFAVYYCQQSSNWPRTFGQGTKVEIKR | 70 to 90%
anti-PD-1 antibody 2 light chain A60C (antibody, human IgG4 S228P, kappa, V domains shown) VH: QVQLVESGGGVVQPGRSLRLDCKASGITFSNSGMHWVRQAPGKGLEWVAVIWYDGSKRYYADSVKGRFTISRDNSKNTLFLQMNSLRAEDTAVYYCATNDDYWGQGTLVTVSS VL: EIVLTQSPATLSLSPGERATLSCRASQSVSSYLAWYQQKPGQAPRLLIYDASNRATGIPCRFSGSGSGTDFTLTISSLEPEDFAVYYCQQSSNWPRTFGQGTKVEIKR | 70 to 90%
anti-PD-1 antibody 2 light chain A51C (antibody, human IgG4 S228P, kappa, V domains shown) VH: QVQLVESGGGVVQPGRSLRLDCKASGITFSNSGMHWVRQAPGKGLEWVAVIWYDGSKRYYADSVKGRFTISRDNSKNTLFLQMNSLRAEDTAVYYCATNDDYWGQGTLVTVSS VL: EIVLTQSPATLSLSPGERATLSCRASQSVSSYLAWYQQKPGQAPRLLIYDCSNRATGIPARFSGSGSGTDFTLTISSLEPEDFAVYYCQQSSNWPRTFGQGTKVEIKR | 70 to 90%
anti-PD-1 antibody 1 light chain T101C (antibody, human IgG4 S228P, kappa, V domains shown) VH: QVQLVQSGVEVKKPGASVKVSCKASGYTFTNYYMYWVRQAPGQGLEWMGGINPSNGGTNFNEKFKNRVTLTTDSSTTTAYMELKSLQFDDTAVYYCARRDYRFDMGFDYWGQGTTVTVSS VL: EIVLTQSPATLSLSPGERATLSCRASKGVSTSGYSYLHWYQQKPGQAPRLLIYLASYLESGVPARFSGSGSGTDFTLTISSLEPEDFAVYYCQHSRDLPLCFGGGTKVEIKR | 70 to 90%

molecular target: T2, PD-1; experiment: ELISA, OD mutant/OD WT; ↓=less than 70%

Binder | binding activity vs wild type
anti-PD-1 antibody 2 heavy chain K65C (antibody, human IgG4 S228P, kappa, V domains shown) VH: QVQLVESGGGVVQPGRSLRLDCKASGITFSNSGMHWVRQAPGKGLEWVAVIWYDGSKRYYADSVCGRFTISRDNSKNTLFLQMNSLRAEDTAVYYCATNDDYWGQGTLVTVSS VL: EIVLTQSPATLSLSPGERATLSCRASQSVSSYLAWYQQKPGQAPRLLIYDASNRATGIPARFSGSGSGTDFTLTISSLEPEDFAVYYCQQSSNWPRTFGQGTKVEIKR | < 70%
anti-PD-1 antibody 2 heavy chain Y59C (antibody, human IgG4 S228P, kappa, V domains shown) VH: QVQLVESGGGVVQPGRSLRLDCKASGITFSNSGMHWVRQAPGKGLEWVAVIWYDGSKRCYADSVKGRFTISRDNSKNTLFLQMNSLRAEDTAVYYCATNDDYWGQGTLVTVSS VL: EIVLTQSPATLSLSPGERATLSCRASQSVSSYLAWYQQKPGQAPRLLIYDASNRATGIPARFSGSGSGTDFTLTISSLEPEDFAVYYCQQSSNWPRTFGQGTKVEIKR | < 70%
anti-PD-1 antibody 2 heavy chain D62C (antibody, human IgG4 S228P, kappa, V domains shown) VH: QVQLVESGGGVVQPGRSLRLDCKASGITFSNSGMHWVRQAPGKGLEWVAVIWYDGSKRYYACSVKGRFTISRDNSKNTLFLQMNSLRAEDTAVYYCATNDDYWGQGTLVTVSS VL: EIVLTQSPATLSLSPGERATLSCRASQSVSSYLAWYQQKPGQAPRLLIYDASNRATGIPARFSGSGSGTDFTLTISSLEPEDFAVYYCQQSSNWPRTFGQGTKVEIKR | < 70%
anti-PD-1 antibody 2 heavy chain Y53C (antibody, human IgG4 S228P, kappa, V domains shown) VH: QVQLVESGGGVVQPGRSLRLDCKASGITFSNSGMHWVRQAPGKGLEWVAVIWCDGSKRYYADSVKGRFTISRDNSKNTLFLQMNSLRAEDTAVYYCATNDDYWGQGTLVTVSS VL: EIVLTQSPATLSLSPGERATLSCRASQSVSSYLAWYQQKPGQAPRLLIYDASNRATGIPARFSGSGSGTDFTLTISSLEPEDFAVYYCQQSSNWPRTFGQGTKVEIKR | < 70%
anti-PD-1 antibody 2 heavy chain K57C (antibody, human IgG4 S228P, kappa, V domains shown) VH: QVQLVESGGGVVQPGRSLRLDCKASGITFSNSGMHWVRQAPGKGLEWVAVIWYDGSCRYYADSVKGRFTISRDNSKNTLFLQMNSLRAEDTAVYYCATNDDYWGQGTLVTVSS VL: EIVLTQSPATLSLSPGERATLSCRASQSVSSYLAWYQQKPGQAPRLLIYDASNRATGIPARFSGSGSGTDFTLTISSLEPEDFAVYYCQQSSNWPRTFGQGTKVEIKR | < 70%
anti-PD-1 antibody 1 heavy chain K65C (antibody, human IgG4 S228P, kappa, V domains shown) VH: QVQLVQSGVEVKKPGASVKVSCKASGYTFTNYYMYWVRQAPGQGLEWMGGINPSNGGTNFNEKFCNRVTLTTDSSTTTAYMELKSLQFDDTAVYYCARRDYRFDMGFDYWGQGTTVTVSS VL: EIVLTQSPATLSLSPGERATLSCRASKGVSTSGYSYLHWYQQKPGQAPRLLIYLASYLESGVPARFSGSGSGTDFTLTISSLEPEDFAVYYCQHSRDLPLTFGGGTKVEIKR | < 70%
anti-PD-1 antibody 1 heavy chain Y32C (antibody, human IgG4 S228P, kappa, V domains shown) VH: QVQLVQSGVEVKKPGASVKVSCKASGYTFTNCYMYWVRQAPGQGLEWMGGINPSNGGTNFNEKFKNRVTLTTDSSTTTAYMELKSLQFDDTAVYYCARRDYRFDMGFDYWGQGTTVTVSS VL: EIVLTQSPATLSLSPGERATLSCRASKGVSTSGYSYLHWYQQKPGQAPRLLIYLASYLESGVPARFSGSGSGTDFTLTISSLEPEDFAVYYCQHSRDLPLTFGGGTKVEIKR | < 70%
